The values that follow come from patent publication US20220267421A1 (INVOX PHARMA, published 2022).

One assay has as its target CD137 on CD8+ T cells (human, UniProt Q07011 24-255). Kind of assay: cell-based or functional assay.
Assay [1] addresses cell surface human mesothelin (MSLN) (human, UniProt Q13421 296-598). The experiment in a line: cell-based or functional assay.
For assay [2], the target named is T1, human MSLN-His-Avi (human, UniProt Q13421 296-598, single biotin (BirA) in the biotinylated form).
T1 construct: Monomeric, made in HEK293-6E; Used both immobilised and in solution; also called hMSLN-His-Avi; biotinylated hMSLN-His-Avi
The experiment in a line: ratio of the two SPR KD.

Assay [3] concerns the target T1, human MSLN-His-Avi. Kind of assay: SPR as Example 4.1 (about 40 RU instead of 100), MSLN immobilised.
Assay [4] concerns the target T1, human MSLN-His-Avi. Kind of assay: SPR as Example 4.1 (about 40 RU instead of 100), MSLN in solution.
For assay [5], the target named is T2, mouse MSLN-His-Avi (mouse, UniProt Q61468 298-600, single biotin (BirA) in the biotinylated form).
T2 construct: Monomeric, made in HEK293-6E; also called mMSLN-His-Avi
T2 sequence: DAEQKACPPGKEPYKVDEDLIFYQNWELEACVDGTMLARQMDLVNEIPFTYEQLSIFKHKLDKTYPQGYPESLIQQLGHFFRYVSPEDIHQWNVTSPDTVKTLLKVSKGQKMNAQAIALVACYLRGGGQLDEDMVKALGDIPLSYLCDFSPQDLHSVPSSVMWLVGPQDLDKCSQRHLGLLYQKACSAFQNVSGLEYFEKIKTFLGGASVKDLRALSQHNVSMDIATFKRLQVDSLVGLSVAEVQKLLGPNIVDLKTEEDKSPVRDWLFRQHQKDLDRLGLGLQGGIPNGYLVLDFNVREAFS
Kind of assay: ratio of the two SPR KD. The procedure:
(§1) The procedure for binding to immobilised MSLN was similar to the method described in section 2.1.4 with mMSLN-His-Avi immobilised at 50 RU. To determine the affinity for soluble MSLN the mAb² were captured via anti-human Fc. Briefly, 25 μg/ml anti-human IgG (Fc) antibody (GE Healthcare, Human Antibody Capture Kit, BR100839) was coated on flow cells 1, 2, 3 and 4 of a Biacore sensor chip CM5 (GE Healthcare, BR100530) achieving a final response of approximately 750 RU. The mAb² clones, diluted in HBS-EP buffer (GE Healthcare, BR100188) at 50 nM, were injected individually on flows cell 2, 3 and 4 at 30 μl/min to achieve a response of approximately 100 RU. […] Regeneration was achieved by injecting 3 M magnesium chloride (GE Healthcare, Human Antibody Capture Kit, BR100839) for 30 seconds at a rate of 30 μl/min.

For assay [6], the target named is T2, mouse MSLN-His-Avi. The experiment in a line: SPR (Biacore), mMSLN-His-Avi immobilised at 50 RU. On the procedure: as §1
On the technique in general: SPR reads the build-up and loss of mass on a sensor chip optically.

The target of assay [7] is T2, mouse MSLN-His-Avi. Kind of assay: SPR (Biacore), mAb^2 captured via anti-human Fc, mMSLN-His-Avi in solution. On the procedure:
as §1

Assay [8] has as its target T3, OX40 on activated T cells (UniProt P43489 29-277, limits assumed).
T3 sequence (looked up): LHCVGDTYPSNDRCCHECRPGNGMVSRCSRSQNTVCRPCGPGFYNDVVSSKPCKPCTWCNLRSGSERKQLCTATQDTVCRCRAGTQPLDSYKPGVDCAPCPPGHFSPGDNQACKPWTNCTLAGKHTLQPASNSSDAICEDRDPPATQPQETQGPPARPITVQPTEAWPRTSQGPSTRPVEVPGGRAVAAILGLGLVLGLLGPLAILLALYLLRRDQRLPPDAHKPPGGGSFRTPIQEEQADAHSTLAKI
Kind of assay: cell-based or functional assay.

T1 sequence (Q13421 other isoform, or with tags, fused parts or gaps): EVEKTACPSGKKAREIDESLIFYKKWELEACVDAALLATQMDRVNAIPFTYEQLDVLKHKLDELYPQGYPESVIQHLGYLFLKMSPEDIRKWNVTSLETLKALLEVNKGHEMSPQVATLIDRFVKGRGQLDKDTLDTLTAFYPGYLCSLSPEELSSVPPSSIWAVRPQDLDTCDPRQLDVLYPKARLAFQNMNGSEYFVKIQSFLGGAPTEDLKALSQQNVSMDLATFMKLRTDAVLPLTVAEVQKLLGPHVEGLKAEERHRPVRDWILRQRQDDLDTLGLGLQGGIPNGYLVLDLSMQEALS
cell surface human mesothelin (MSLN), sequence (Q13421 other isoform, or with tags, fused parts or gaps limits assumed): as the sequence (Q13421 other isoform, or with tags, fused parts or gaps) above
CD137 on CD8+ T cells, sequence (Q07011 24-255): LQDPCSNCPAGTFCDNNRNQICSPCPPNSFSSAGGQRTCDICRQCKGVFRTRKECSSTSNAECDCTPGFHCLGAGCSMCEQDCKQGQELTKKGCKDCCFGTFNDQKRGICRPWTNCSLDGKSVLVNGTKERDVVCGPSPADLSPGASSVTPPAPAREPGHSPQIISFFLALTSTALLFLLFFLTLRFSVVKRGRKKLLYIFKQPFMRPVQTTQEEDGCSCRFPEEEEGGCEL

B1: FS28-256-271 (in CD137 mAb^2 format) (bispecific antibody, V domains shown)
VH: EVQLLESGGGLVQPGGSLRLSCAASGFTFTHTYMSWVRQAPGKGLEWVSAISPTYSTTNYADSVKGRFTISRDNNKNTLYLQMNSLRAEDTAVYYCARYNAYHAALDYWGQGTLVTVSS
VL: EIVLTQSPGTLSLSPGERATLSCRASQSVSSSYLAWYQQKPGQAPRLLIYGASSRATGIPDRFSGSGSGTDFTLTISRLEPEDFAVYYCQQTVPYPYTFGQGTKVEIK
With B1, the “CD8+ T cell activation assay (IL-2 release), NCI-H226 cells for crosslinking: EC50” value (with CD137 on CD8+ T cells; in assay [1]) was 0.096 nM in each case. Further, in the assay with human MSLN-His-Avi [2], the “Ratio of KD in solution/immobilised for human MSLN-His-Avi” value was 3. The Kd (usually the concentration at which binding is half-saturated) in the assay with human MSLN-His-Avi [3] stood at 5.9 nM; with human MSLN-His-Avi [4] it was 18.2 nM.

B2: FS22-063-AA/FS28m-228 mAb^2 (bispecific antibody, human IgG1, kappa, L234A L235A, V domains shown)
VH: EVQLLESGGGLVQPGGSLRLSCAASGFTFSTYFMVWVRQAPGKGLEWVSMISPKSSNTYYADSVKGRFTISRDNSKNTLYLQMNSLRAEDTAVYYCARWFTPARFDYWGQGTLVTVSS
VL: EIVLTQSPGTLSLSPGERATLSCRASQSVSSSYLAWYQQKPGQAPRLLIYGASSRATGIPDRFSGSGSGTDFTLTISRLEPEDFAVYYCQQPFPFSFTFGQGTKVEIKR
notes: LALA
Consider B2, for which the “Ratio of KD in solution/immobilised for mouse MSLN-His-Avi” value with mouse MSLN-His-Avi [5] is 31.9. Besides, the equilibrium dissociation constant (Kd) was 7.9 nM with mouse MSLN-His-Avi [6] and 252 nM with mouse MSLN-His-Avi [7].

B3: FS22m-063-AA/FS28m-228-010 mAb^2 (bispecific antibody, human IgG1, kappa, L234A L235A, V domains shown)
VH: EVQLLESGGGLVQPGGSLRLSCAASGFTFSTYFMVWVRQAPGKGLEWVSMISPKSSNTYYADSVKGRFTISRDNSKNTLYLQMNSLRAEDTAVYYCARYHISPRFDYWGQGTLVTVSS
VL: EIVLTQSPGTLSLSPGERATLSCRASQSVSSSYLAWYQQKPGQAPRLLIYGASSRATGIPDRFSGSGSGTDFTLTISRLEPEDFAVYYCQQPFPFSFTFGQGTKVEIKR
notes: Anti-mouse CD137 Fcab with anti-mouse MSLN Fab; LALA; also called CD137/MSLN mAb^2
Regarding B3, the “Ratio of KD in solution/immobilised for mouse MSLN-His-Avi” value with mouse MSLN-His-Avi [5] is 23.2. The dissociation constant (Kd) with mouse MSLN-His-Avi [6] worked out at 2.6 nM; with mouse MSLN-His-Avi [7], 60.2 nM.

B4: OX40 (FS20-022-049)/FS28-256-271 mAb^2 (bispecific antibody, human IgG1, kappa, L234A L235A)
heavy: EVQLLESGGGLVQPGGSLRLSCAASGFTFTHTYMSWVRQAPGKGLEWVSAISPTYSTTNYADSVKGRFTISRDNNKNTLYLQMNSLRAEDTAVYYCARYNAYHAALDYWGQGTLVTVSSASTKGPSVFPLAPSSKSTSGGTAALGCLVKDYFPEPVTVSWNSGALTSGVHTFPAVLQSSGLYSLSSVVTVPSSSLGTQTYICNVNHKPSNTKVDKKVEPKSCDKTHTCPPCPAPEAAGGPSVFLFPPKPKDTLMISRTPEVTCVVVDVSHEDPEVKFNWYVDGVEVHNAKTKPREEQYNSTYRVVSVLTVLHQDWLNGKEYKCKVSNKALPAPIEKTISKAKGQPREPQVYTLPPSRDEYWDQEVSLTCLVKGFYPSDIAVEWESNGDEQFAYKTTPPVLDSDGSFFLYSKLTVDQYRWNPADYFSCSVMHEALHNHYTQKSLSLSPG
light: EIVLTQSPGTLSLSPGERATLSCRASQSVSSSYLAWYQQKPGQAPRLLIYGASSRATGIPDRFSGSGSGTDFTLTISRLEPEDFAVYYCQQTVPYPYTFGQGTKVEIKRTVAAPSVFIFPPSDEQLKSGTASVVCLLNNFYPREAKVQWKVDNALQSGNSQESVTEQDSKDSTYSLSSTLTLSKADYEKHKVYACEVTHQGLSSPVTKSFNRGEC
For B4, the “T cell activation assay (IL-2 release), NCI-H226 cells for crosslinking: EC50” value in assay [8] and in [1] was 0.11 nM each time.
